Measured values as given in patent US20090324601A1 (published 2009).
Residue numbers refer to the chain shown, from its start. Values joined by “and” are separate entries in the source; they are usually repeats but may differ in a detail not shown here. Equal entries are not always repeated.

B1: 2.998.2 (antibody, V domains shown)
VH: QLQLQESGPGLVKPSETLSLTCTVSGDSISSFIYYWGWIRQPPGKGLEWIGTIYYSGSTYYNPSLKSRVTISVDTSKNQFSLKLRSVTAADTAVYYCARHHWVFDYWGQGTQVTVSS
VL: DIVLTQFPDFQSVTPKEKVTITCRASQVIGSSLHWYQQKPDQSPKLLIKYASQSFSGVPSRFSGSGSGTDFTLTINSLEVEDAATYYCHQSTILPWTFGQGTKVEVK
notes: identified by its values; also called mAb 2.998.2
B2: 2.175.3 (antibody, V domains shown)
VH: QVHLVESGGGLVKPGGSLRLSCAASGFTFSDYYMHWIRQAPGKGLEWVSYISRSGSLIYYVDSVKGRFTISRDNAKNSLNLQMNSLRAEDTAVYYCARGGPYSGSPFDYWGQGTLVTVSS
VL: DIQMTQSPSSLSASVGDRVTITCRPSQRISRYLNWYQQKPGKAPKFLIYAASSLPSGVPSRFSGSGSGTDFTLTISTLQPEDFATYYCQQSYSTPPWTFGQGTKVEIK
B3: 2.449.1.3 (antibody, V domains shown)
VH: QVQLVESGGGLVKPGGSLRLSCAASGFTFSDYYMNWIRQAPGKGLEWVSYISSSGSIIYYADSVKGRFTISRDNAKNSLYLQMNSLRAEDTAVYYCAREGRIAARGMDVWGQGTTVTVSS
VL: DIQMTQSPSSLSASVGDRVSITCRPSQSFSRYINWYQQKPGKAPKLLIHAASSLVGGVPSRFSGSGSGTDFTLTISSLQPEDFATYYCQQTYSNPPITFGQGTRLEMK
notes: also called 2.449.1.3 (control)
B4: 2.84.3 (antibody, V domains shown)
VH: B1 VH with D27G, S28F, F32S, I33S, S58T, P63S, K77Q, R85S, Q112L
VL: EVVLTQSPDFQSVTPKEKITITCRASQIIGTSLHWYQKKPDQSPKLLIKYASQSFSGVPSRFSGSGSGTEFTLTINSLEAEDTATYYCHQSTNLPWTFGQGTKVEIK
B5: 2.998.2 (antibody, V domains shown)
VH: B1 VH
VL: B1 VL
B6: 2.351.3 (antibody, V domains shown)
VH: QVQLVQSGAEVKKPGASVKVSCKASGYTFIGYYLHWVRQAPGQGLEWMGSINPNSGGTNYAQKFQGRVTMIRDTSINTAYMELSRLRSDDTAVYYCARDKRITMVRGVHYLYYGWDVWGQGTTVTVSS
VL: DIQMTQSPSSLSASVGDRVTITCRASQVISNYLAWYQQKPGKVPQLLIYAASTLQSGVPSRFSGSGSGTDFTLTISSLQPEDVATYYCQNYKSAPWTFGQGTKVEIK
B7: 2.737.1.4 (antibody, V domains shown)
VH: B3 VH with S30R, N35S, S49A, Y50F, Y80F, E99D, R101H
VL: DIQMTQSPSSLSASVGDRVTITCRASQSINKYINWYQQKPGKAPKLLIYAASSLQSGVPSRFNGSGSGTDFTFTINTLQPEDFATYYCQQTYSTPPITFGQGTRLEIK
B8: 5.16.1 (antibody, V domains shown)
VH: QVQLVQSGAEVKKPGASVKVSCKASGYTFTSYYMYWVRQAPGQGLEWMGIINPSGGSTSYAQKFQGRVTMTRDTSTSTVYMELSSLRSEDTAVYYCARGSSPFFDYWGQGTLVTVSS
VL: DIQMTQSPSSLSASVGDRVTITCRASQIISHFLNWYQQKPGKAPKLLVYVASSLQSGVPSRFSGSGSGTDFTLTISSLQPEDFATYYCQQSFSIPLTFGGGTKVEIK
B9: 3.341.2 (antibody, V domains shown)
VH: EVQLVESGGGLVQPGGSLRLSCAASGFTFSSYSMNWVRQAPGKGLEWVSFISGSSSTMYYADSVKGRFTISRDNAKNSLYLQMNSLRDEDTAVYYCARLRYFDWSYAFDIWGQGTMVTVSS
VL: DIQMTQSPSSVSTSVGDRVTITCRASQGIRSWLAWYQQRPGKAPKLLIYAASSLQNGVPSRFSGSGSGTDFTLTISSLQPEDFATYFCQQATSFPFTFGPGTKVDIN
notes: Only variable regions
B10: 2.84.3 (antibody, V domains shown)
VH: B1 VH with D27G, S28F, F32S, I33S, S58T, P63S, K77Q, R85S, Q112L
VL: B4 VL
B11: 2.414.2 (antibody, V domains shown)
VH: B1 VH with D27G, F32S, I33N, S56T, R85S, Q112L
VL: B1 VL with D1E, F7S, Q11L, V28I, I75L, V80A, V106I
B12: 2.542.2 (antibody, V domains shown)
VH: B1 VH with D27G, F32S, I33T, R85N, Q112L
VL: B1 VL with D1E, F7S, Q11L, V28I, K45N, F55V, I75L, V80A, V106I

Biological target: T1, Recombinant human sPDGFR-alpha (R&D catalog# 322-PR/CF) (human, UniProt P16234 24-528)
T1 construct: extracellular domain; Bought reagent; also called soluble PDGFRa; recombinant soluble PDGFR-alpha extracellular domain
Assay: Biacore T100 SPR, 22 C, mAb immobilised on CM5, sPDGFR-alpha injected, 1:1 fit

T1 sequence (P16234 24-528): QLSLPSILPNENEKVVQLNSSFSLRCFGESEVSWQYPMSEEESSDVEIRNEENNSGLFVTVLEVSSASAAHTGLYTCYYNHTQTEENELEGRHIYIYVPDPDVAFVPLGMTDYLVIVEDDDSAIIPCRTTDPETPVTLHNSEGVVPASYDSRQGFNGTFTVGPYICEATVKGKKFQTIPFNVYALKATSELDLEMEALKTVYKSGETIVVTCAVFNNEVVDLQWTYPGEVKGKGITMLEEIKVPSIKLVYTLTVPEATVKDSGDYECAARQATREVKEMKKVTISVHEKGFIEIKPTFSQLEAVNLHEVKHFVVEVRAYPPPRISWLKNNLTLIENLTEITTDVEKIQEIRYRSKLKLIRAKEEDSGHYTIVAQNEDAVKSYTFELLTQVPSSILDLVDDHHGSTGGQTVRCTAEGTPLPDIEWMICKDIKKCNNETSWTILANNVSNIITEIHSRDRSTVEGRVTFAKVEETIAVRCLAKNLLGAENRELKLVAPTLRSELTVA

| Binder | Kd | koff | kon |
| --- | --- | --- | --- |
| B1 | 0.164 nM | 4.89e-05 s⁻¹ | 298000 M⁻¹ s⁻¹ |

Biological target: T2, PDGFR-alpha on MG-63 cells (human, UniProt P16234 24-1089)
Assay: cell-based or functional assay

T2 sequence (P16234 24-1089): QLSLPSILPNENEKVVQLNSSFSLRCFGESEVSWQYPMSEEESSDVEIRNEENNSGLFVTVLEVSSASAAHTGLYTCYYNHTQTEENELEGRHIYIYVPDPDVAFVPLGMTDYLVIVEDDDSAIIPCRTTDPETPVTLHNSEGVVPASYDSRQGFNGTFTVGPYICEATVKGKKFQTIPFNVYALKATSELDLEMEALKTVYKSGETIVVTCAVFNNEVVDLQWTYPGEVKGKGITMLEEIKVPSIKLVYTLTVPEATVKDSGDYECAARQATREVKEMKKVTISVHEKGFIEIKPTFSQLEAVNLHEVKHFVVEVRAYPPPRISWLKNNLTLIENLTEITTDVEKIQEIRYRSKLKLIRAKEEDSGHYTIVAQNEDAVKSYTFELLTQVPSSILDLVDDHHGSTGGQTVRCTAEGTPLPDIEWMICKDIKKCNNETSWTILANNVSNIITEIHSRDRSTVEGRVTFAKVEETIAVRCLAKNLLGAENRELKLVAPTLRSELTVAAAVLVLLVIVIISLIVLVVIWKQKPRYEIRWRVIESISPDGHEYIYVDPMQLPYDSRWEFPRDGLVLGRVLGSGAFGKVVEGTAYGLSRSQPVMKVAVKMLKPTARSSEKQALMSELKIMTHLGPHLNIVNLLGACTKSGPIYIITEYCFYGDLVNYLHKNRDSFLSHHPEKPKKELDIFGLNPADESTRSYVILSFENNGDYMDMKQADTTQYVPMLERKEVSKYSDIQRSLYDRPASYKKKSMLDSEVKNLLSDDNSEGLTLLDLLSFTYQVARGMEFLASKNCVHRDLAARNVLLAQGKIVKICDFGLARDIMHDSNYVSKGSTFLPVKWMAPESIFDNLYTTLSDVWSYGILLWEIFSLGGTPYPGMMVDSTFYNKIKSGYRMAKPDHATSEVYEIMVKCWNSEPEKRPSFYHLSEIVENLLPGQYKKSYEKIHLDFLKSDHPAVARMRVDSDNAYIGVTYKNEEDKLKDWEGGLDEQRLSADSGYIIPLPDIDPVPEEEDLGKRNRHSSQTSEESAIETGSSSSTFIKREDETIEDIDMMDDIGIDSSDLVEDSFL

| Binder | PROLIFERATION ASSAY: MG-63 CELLS, IC50 |
| --- | --- |
| B2 | 0.37 nM |
| B3 | 1.57 nM |
| B4 | 481 ng/ml and 3.2 nM |
| B5 | 2.1 nM |

Biological target: T2, PDGFR-alpha on MG-63 cells
Assay: cell-based or functional assay
Remark: another data set of the same source

| Binder | Average pTyr Inhibition |
| --- | --- |
| B2 | 99% |
| B3 | 99% |
| B4 | 98% |
| B5 | 99% |

Biological target: T3, murine PDGFRa on NIH3T3 cells (murine, UniProt P26618 25-1089)
T3 construct: whole, on cells; also called mouse PDGFR-alpha
Assay: FACS on NIH3T3 cells, goat anti-human IgG Cy5

T3 sequence (P26618 25-1089): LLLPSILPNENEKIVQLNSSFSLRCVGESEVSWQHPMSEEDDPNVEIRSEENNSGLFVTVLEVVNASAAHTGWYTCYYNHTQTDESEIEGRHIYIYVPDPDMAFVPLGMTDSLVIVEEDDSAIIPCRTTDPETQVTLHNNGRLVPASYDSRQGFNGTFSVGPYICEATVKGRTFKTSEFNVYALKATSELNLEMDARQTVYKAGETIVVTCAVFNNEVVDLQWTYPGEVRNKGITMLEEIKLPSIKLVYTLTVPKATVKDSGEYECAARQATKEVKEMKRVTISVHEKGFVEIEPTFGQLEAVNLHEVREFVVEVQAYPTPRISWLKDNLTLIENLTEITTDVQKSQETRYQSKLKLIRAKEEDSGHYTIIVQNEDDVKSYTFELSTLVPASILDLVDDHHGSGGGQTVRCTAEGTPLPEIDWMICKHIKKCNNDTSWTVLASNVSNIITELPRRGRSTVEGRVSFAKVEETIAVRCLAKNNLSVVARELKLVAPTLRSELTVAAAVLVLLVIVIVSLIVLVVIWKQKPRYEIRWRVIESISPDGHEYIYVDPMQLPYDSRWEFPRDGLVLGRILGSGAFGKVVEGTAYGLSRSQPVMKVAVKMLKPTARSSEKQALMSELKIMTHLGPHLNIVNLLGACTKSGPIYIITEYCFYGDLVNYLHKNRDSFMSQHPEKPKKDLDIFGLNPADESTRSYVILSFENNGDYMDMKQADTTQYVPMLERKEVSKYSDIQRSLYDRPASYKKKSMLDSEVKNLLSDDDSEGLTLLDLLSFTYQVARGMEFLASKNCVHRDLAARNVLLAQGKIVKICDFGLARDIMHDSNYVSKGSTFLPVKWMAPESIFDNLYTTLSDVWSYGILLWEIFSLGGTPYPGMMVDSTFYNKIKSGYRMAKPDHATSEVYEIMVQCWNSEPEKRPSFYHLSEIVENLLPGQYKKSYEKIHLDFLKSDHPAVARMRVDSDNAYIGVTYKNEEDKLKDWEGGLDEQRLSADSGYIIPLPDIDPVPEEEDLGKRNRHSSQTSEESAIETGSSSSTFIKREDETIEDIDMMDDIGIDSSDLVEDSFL

| Binder | binding result |
| --- | --- |
| B6 | no binding (tested: 10 ug/ml) |
| B7 | no binding (tested: 10 ug/ml) |
| B8 | no binding (tested: 10 ug/ml) |
| B9 | no binding (tested: 10 ug/ml) |
| B1 | no binding (tested: 10 ug/ml) |
| B10 | no binding (tested: 10 ug/ml) |
| B11 | no binding (tested: 10 ug/ml) |
| B12 | no binding (tested: 10 ug/ml) |

Biological target: T2, PDGFR-alpha on MG-63 cells
Assay: FACS titration on MG-63 cells expressing PDGFR-alpha, 4 °C, Cy5 secondary antibody, nonlinear fit of geometric mean fluorescence

| Binder | Kd |
| --- | --- |
| B2 | 0.328 nM |
| B3 | 0.052 nM and 0.053 nM |
| B4 | 0.227 nM |
| B5 | 0.057 nM |

Biological target: T4, PDGFR-alpha on human osteosarcoma MG-63 cells (human, UniProt P16234 24-1089)
Assay: cell-based or functional assay

T4 sequence (P16234 24-1089): as the sequence (P16234 24-1089) above

| Binder | Proliferation Assay: IC50 ng/ml (1-6-06) | Proliferation Assay: IC50 ng/ml (1-23-06) | pTyr Assay: % Inhibition @ 2 µg/ml | Proliferation Assay: IC50 (1-6-06) | Proliferation Assay: IC50 (1-23-06) |
| --- | --- | --- | --- | --- | --- |
| B6 | 1080 ng/mL | 649 ng/mL | 97% | – | – |
| B7 | 551 ng/mL | 558 ng/mL | 99% | 3.7 nM | 3.73 nM |
| B8 | 386 ng/mL | 423 ng/mL | 99% | 2.57 nM | 2.81 nM |
| B9 | 404 ng/mL | 471 ng/mL | 100% | 2.7 nM | 3.1 nM |
| B1 | 308 ng/mL | 316 ng/mL | 99% | 2.05 nM | 2.1 nM |
| B10 | 192 ng/mL | 481 ng/mL | 98% | 1.3 nM | 3.2 nM |
| B11 | 658 ng/mL | 349 ng/mL | 99% | 4.4 nM | 2.3 nM |
| B12 | 1040 ng/mL | 652 ng/mL | 99% | – | – |

Biological target: T4, PDGFR-alpha on human osteosarcoma MG-63 …
Assay: FACS titration on MG-63 cells, 4 C, Cy5 goat anti-human detection

| Binder | Kd |
| --- | --- |
| B1 | 0.057 nM |
| B10 | 0.227 nM |
